From article PMC5039622, “Characterization of aspartyl aminopeptidase from Toxoplasma gondii” (Scientific Reports, 2016)

T1: rTgAAP (TgAAP, aspartyl aminopeptidase) (Toxoplasma gondii, UniProt A0A7J6KF82)
T1 construct: gene TGRH88_002740; full-length CDS 1521 bp, ~56 kDa (55897 Da predicted in ToxoDB), N-terminal GST tag kept (~80 kDa), E. coli BL21, pCold III; mainly dodecamer, also trimer and monomer on native PAGE
T1 sequence (A0A7J6KF82 1-508): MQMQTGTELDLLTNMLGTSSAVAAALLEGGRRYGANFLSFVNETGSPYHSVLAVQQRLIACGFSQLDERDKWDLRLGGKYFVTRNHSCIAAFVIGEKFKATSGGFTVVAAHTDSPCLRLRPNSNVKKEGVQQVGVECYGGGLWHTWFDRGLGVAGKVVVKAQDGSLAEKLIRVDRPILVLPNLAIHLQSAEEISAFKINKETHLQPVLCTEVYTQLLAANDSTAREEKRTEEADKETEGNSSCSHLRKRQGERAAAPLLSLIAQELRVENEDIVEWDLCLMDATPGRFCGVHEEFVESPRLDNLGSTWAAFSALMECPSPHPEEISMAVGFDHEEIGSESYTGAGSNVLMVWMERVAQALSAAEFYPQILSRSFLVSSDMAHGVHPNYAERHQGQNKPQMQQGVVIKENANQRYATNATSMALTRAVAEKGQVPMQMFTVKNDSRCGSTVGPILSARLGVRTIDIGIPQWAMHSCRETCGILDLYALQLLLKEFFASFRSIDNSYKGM

B1: rTgAAP (TgAAP, aspartyl aminopeptidase) (Toxoplasma gondii) (protein)
chain: MQMQTGTELDLLTNMLGTSSAVAAALLEGGRRYGANFLSFVNETGSPYHSVLAVQQRLIACGFSQLDERDKWDLRLGGKYFVTRNHSCIAAFVIGEKFKATSGGFTVVAAHTDSPCLRLRPNSNVKKEGVQQVGVECYGGGLWHTWFDRGLGVAGKVVVKAQDGSLAEKLIRVDRPILVLPNLAIHLQSAEEISAFKINKETHLQPVLCTEVYTQLLAANDSTAREEKRTEEADKETEGNSSCSHLRKRQGERAAAPLLSLIAQELRVENEDIVEWDLCLMDATPGRFCGVHEEFVESPRLDNLGSTWAAFSALMECPSPHPEEISMAVGFDHEEIGSESYTGAGSNVLMVWMERVAQALSAAEFYPQILSRSFLVSSDMAHGVHPNYAERHQGQNKPQMQQGVVIKENANQRYATNATSMALTRAVAEKGQVPMQMFTVKNDSRCGSTVGPILSARLGVRTIDIGIPQWAMHSCRETCGILDLYALQLLLKEFFASFRSIDNSYKGM
notes: full-length CDS 1521 bp, ~56 kDa (55897 Da predicted in ToxoDB), N-terminal GST tag kept (~80 kDa), E. coli BL21, pCold III; mainly dodecamer, also trimer and monomer on native PAGE

Columns and labels:
[1] = target: T1, rTgAAP (TgAAP, aspartyl aminopeptidase); assay: inhibition of H-Glu-MCA hydrolysis; type: biochemical; conditions: 1 h pre-incubation at 37 °C; substrate H-Glu-MCA
[2] = substrate: Cc1cc(=O)oc2cc(NC(=O)[C@@H](N)CO)ccc12; assay: fluorogenic MCA release, initial rates; type: biochemical, Toxoplasma gondii; conditions: 37 °C, enzyme 0.3 μM, metal not stated for the kinetics
From the text: (§1) fluorogenic MCA release, initial rates on rTgAAP (TgAAP, aspartyl aminopeptidase)

[3] = substrate: Cc1cc(=O)oc2cc(NC(=O)[C@@H](N)CC(N)=O)ccc12; assay: fluorogenic MCA release, initial rates; type: biochemical, Toxoplasma gondii; conditions: 37 °C, enzyme 0.3 μM, metal not stated for the kinetics
From the text: as §1

[4] = substrate: Cc1cc(=O)oc2cc(NC(=O)[C@@H](N)CC(=O)O)ccc12; assay: fluorogenic MCA release, initial rates; type: biochemical, Toxoplasma gondii; conditions: 37 °C, enzyme 0.3 μM, metal not stated for the kinetics
From the text: as §1

[5] = substrate: Cc1cc(=O)oc2cc(NC(=O)[C@@H](N)CCC(=O)O)ccc12; assay: fluorogenic MCA release, initial rates; type: biochemical, Toxoplasma gondii; conditions: 37 °C, enzyme 0.3 μM, metal not stated for the kinetics
From the text: as §1

[6] = substrate: Cc1cc(=O)oc2cc(NC(=O)[C@@H]3CCCN3)ccc12; assay: fluorogenic MCA release, initial rates; type: biochemical, Toxoplasma gondii; conditions: 37 °C, enzyme 0.3 μM, metal not stated for the kinetics, printed kcat/Km 0.28 disagrees tenfold with printed kcat and Km
From the text: as §1

[7] = substrate: Cc1cc(=O)oc2cc(NC(=O)[C@@H](N)Cc3c[nH]cn3)ccc12; assay: fluorogenic MCA release, initial rates; type: biochemical, Toxoplasma gondii; conditions: 37 °C, enzyme 0.3 μM, metal not stated for the kinetics
From the text: as §1

Molecule | % inhibition at 1 mM [1] [%] | Km [2] [µM] | kcat [2] [s⁻¹] | kcat/Km [2] [M⁻¹ s⁻¹] | Km [3] [µM] | kcat [3] [s⁻¹] | kcat/Km [3] [M⁻¹ s⁻¹] | Km [4] [µM] | kcat [4] [s⁻¹] | kcat/Km [4] [M⁻¹ s⁻¹] | Km [5] [µM] | kcat [5] [s⁻¹] | kcat/Km [5] [M⁻¹ s⁻¹] | Km [6] [µM] | Km [7] [µM] | kcat [7] [s⁻¹] | kcat/Km [7] [M⁻¹ s⁻¹]
Cl.Oc1ccc(CCNc2c3ccccc3nc3ccccc23)cc1O [CID 23724194] | > 50 | – | – | – | – | – | – | – | – | – | – | – | – | – | – | – | –
B1 | – | 92.87 ± 3.38 | 0.123 ± 0.0086 | 1330 | 24.32 ± 0.26 | 0.484 ± 0.0126 | 19900 | 12.84 ± 0.21 | 1.1 ± 0.0648 | 85700 | 7.35 ± 0.73 | 1.4 ± 0.306 | 190000 | 98.55 ± 1.96 | 88.70 ± 2.53 | 0.208 ± 0.0043 | 2350
